± gives the standard error. This sample holds only a part of the variants without activity.
B1: glmS ribozyme (parent)
chain: AUAAAAGCGCCAGAACUACAGAAAUGUAGUUGACGAGGAGGAGGUUUAUCGAAUUUUCGGCGGAUGCCUCCAAA

Variants of: B1
Assay: self-cleavage kobs at 2500 uM GlcN6P; higher = faster cleavage; RNA array
Conditions: with glucosamine-6-phosphate
Summary of the method: (§1)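 Barcoded ribozyme variants, transcribed in situ by E. coli RNA polymerase on sequenced MiSeq chips, were followed via a hybridised Cy3 probe at 37 °C. Glucosamine-6-phosphate ranged from 40 μM to 10 mM in HEPES/KCl/Mg(OAc)2 buffer. kobs came from decay fits to per-tile medians, and kcat and KM from weighted Michaelis–Menten fits.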

Variant | self-cleavage kobs at 2500 uM GlcN6P [s⁻¹]
AUAAAGGCGCCAGAAAUACAGAAAUGUAGUUGAAGUGGAGGAUGUUUAUCGAAUUUUCGGCGGAUGCCUCCAAA [A6G C16A C34A A36U G43U] | < 1e-05
AUAAAAGCGCCAGAACUACAGAAAUGUAGUUGACGAGGAGGAGGUUUAUCGAAUUUUCGGCCGUUUCCUCCAAA [G62C A64U G66U] | < 1e-05
AUAAACGCGCCAGAACUACAGAAAUGUAAUUGACGAUGAGGAGGUUUAUCGAAUUUUCGGCGGAUGCCUCCAAA [A6C G29A G37U] | < 1e-05
AUAAAAGCGCCAGAACUACAGAAAUGUAGUUGACGAGGAGGAGGUUUAUCGCGUUUUCGGCGGUUGCCUCCAAA [A52C A53G A64U] | < 1e-05
AUAAACGCGCCAUAACUACAGAAAUGUAGUUGUCGAGGAGGAGGUUUAUCGCAUUUUCGGCGCAUGCCUCCAAA [A6C G13U A33U A52C G63C] | < 1e-05
AUAAAGGCGCCAGCACUACAGAAAUGUAGUUGACGAGGACGAGGUUUAUCGAUUUUUCGCCGGAUGCCUCCAAA [A6G A14C G40C A53U G60C] | < 1e-05
AUAAAGGCGUCAGAACUACAGAAAUGUAGUAGACGAGGAGGAGGUUUAUCGAAUUUUCGUCGGAUGUCUCCAAA [A6G C10U U31A G60U C67U] | < 1e-05
AUAAACGCGCCAGAACUACAGAAAUGUAGUCGACGAGGAGCGGGGUUAUCGAAUUUUCCGCGGAUUCCUCCAAA [A6C U31C G41C A42G U45G G59C G66U] | < 1e-05
AUAAAAGCGCCAGAACUACAGAAAUGUAGUUGACGAGGAGGAGGUUUAUAUAAUCUUCGGCGGAUGCCUCCAAA [C50A G51U U55C] | < 1e-05
AUAAAAGCGCCAGAACUACAGAAAUGUAGUUGACGAGGAGGAGGUUUAUCGAAUUUUCGGCUGAUGCCGCCAAA [G62U U69G] | 0.000214 ± 8.3e-05
AUAAAAGCGCCAGAACUACAGAAAUGUAGUUGACGAGGAGGAGGUUUAUCGCAUUUUCGGCGGAUGUCUCGAAA [A52C C67U C71G] | 9.24e-05 ± 3.5e-05
AUAAAAGCGCCAGAACUACAGAAAUGUAGUUGACGAGGAGGAGGUUUAUCGAAUUUUCGUCGGAUGCCUCAAAA [G60U C71A] | < 1e-05
AUAAAAGCGCCAGAACUACAGAAAUGUAGUUGACGAGGAGGAGGUUUAUCGGAUAUUCGGCGGAUGCCUCAAAA [A52G U55A C71A] | 0.000169 ± 7.2e-05
AUAAAAGCGCCAGAACUACAGAAAUGUAGUUGACGAGGAGGAGGUUUAUCGGAUUUUAGGCGCAUGCGUCCAAA [A52G C58A G63C C68G] | 0.000102 ± 2.9e-05

Variants of: B1
Assay: self-cleavage kobs at 640 uM GlcN6P; higher = faster cleavage; RNA array
Conditions: with glucosamine-6-phosphate
Summary of the method: as §1

Variant | self-cleavage kobs at 640 uM GlcN6P [s⁻¹]
AUAAAAGCGCCAGAACUACAGAAAUGUAGUUGACGAGGAGGAGGUUUAUCGAAUUUUCGGCCGUUUCCUCCAAA [G62C A64U G66U] | < 1e-05
AUAAAAGCGCCAGAACUACAGAAAUGUAGUUGACGAGGAGGAGGUUUAUCCCAUUUUCGACGGAUGCCUCCAAA [G51C A52C G60A] | < 1e-05
AUAAAAGCGCCAGAACUACAGAAAUGUAGUUGACGAGGAGGAGGUUUAUCGAAUUUUCCGCGGAUCCCUCCAAA [G59C G66C] | < 1e-05
AUAAAAGCGCCAGAACUACAGAAAUGUAGUUGACGAGGAGGAGGUUUAUAGAAUUUUCGGGGGAUGCUUCCAAA [C50A C61G C68U] | 8.62e-05 ± 2.5e-05
AUAAAAGCGCCAGAACUACAGAAAUGUAGUUGACGAGGAGGAGGUUUAUCGAAUUUUGGGCGGGAUGCCCCAAA [C58G A64G U65A G66U C67G U69C] | 9.79e-05 ± 2.9e-05
AUAAAAGCGCCAGAACUACAGAAAUGUAGUUGACGAGGAGGAGGUUUAUGGAAUUUACGGCGGUUGCCUCCAAA [C50G U57A A64U] | 0.000127 ± 5.8e-05
AUAAAAGCGCCAGAACUACAGAAAUGUAGUUGACGAGGAGGAGGUUUAUCGCGUUUUCGGCGGUUGCCUCCAAA [A52C A53G A64U] | < 1e-05
AUAAAAGCGCCAGAACUACAGAAAUGUAGUUGACGAGGAGGAGGUUUAUCGAAUUUUCGGCGGCCGCCUCCAAA [A64C U65C] | < 1e-05
AUAAAAGCGCCAGAACUACAGAAAUGUAGUUGACGAGGAGGAGGUUUAUAUAAUCUUCGGCGGAUGCCUCCAAA [C50A G51U U55C] | < 1e-05
AUAAAAGCGCCAGAACUACAGAAAUGUAGUUGACGAGGAGGAGGUUUAUCGAAUUUUCGGCUGAUGCCGCCAAA [G62U U69G] | 3.47e-05 ± 1.3e-05
AUAAAAGCGCCAGAACUACAGAAAUGUAGUUGACGAGGAGGAGGUUGAACGGAUUUUCGGCGGAUGCCUCCAAA [U47G U49A A52G] | < 1e-05
AUAAAAGCGCCAGAACUACAGAAAUGUAGUUGACGAGGAGGAGGUUUAUCGAAUUUUUGGCGGAUGUUUCUAAA [C58U C67U C68U C71U] | 0.000646 ± 0.00029
AUAAAAGCGCCAGAACUACAGAAAUGUAGUUGACGAGGAGGAGGUUUAUCGAAUGAUCGGCGGAUGCCUCGAAA [U55G U56A C71G] | 8.05e-05 ± 1.8e-05
AUAAAAGCGCCAGAACUACAGAAAUGUAGUUGACGAGGAGGAGGUUUAUCGCAUUUUCGGCGGAUGUCUCGAAA [A52C C67U C71G] | 5.68e-05 ± 2.4e-05
AUAAAAGCGCCAGAACUACAGAAAUGUAGUUGACGAGGAGGAGGUUUAUCGAAUUUUCGUCGGAUGCCUCAAAA [G60U C71A] | < 1e-05
AUAAAAGCGCCAGAACUACAGAAAUGUAGUUGACGAGGAGGAGGUUUAUCGGAUAUUCGGCGGAUGCCUCAAAA [A52G U55A C71A] | 7.88e-05 ± 2.3e-05
AUAAAAGCGCCAGAACUACAGAAAUGUAGUUGACGAGGAGGAGGUUUUCCGAAUACUCGGCGGAUGCCCCCAAA [A48U U49C U55A U56C U69C] | < 1e-05
AUAAAAGCGCCAGAACUACAGAAAUGUAGUUGACGAGGAGGAGGUUUAUCGGAUUUUAGGCGCAUGCGUCCAAA [A52G C58A G63C C68G] | 0.00011 ± 4.4e-05
AUAAAAGCGCCAGAACUACAGAAAUGUAGUUGACGAGGAGGAGGUUUAACGAAUCUUCGGCGGAUGCCUCGAAA [U49A U55C C71G] | < 1e-05

Variants of: B1
Assay: self-cleavage kobs at 10000 uM GlcN6P; higher = faster cleavage; RNA array
Conditions: with glucosamine-6-phosphate
Summary of the method: as §1

Variant | self-cleavage kobs at 10000 uM GlcN6P [s⁻¹]
AUAAAAGCGCCAGAACUACAGAAAUGUAGUUGACGAGGAGGAGGUUUAUCGAAUUUUCCGCGGAUCCCUCCAAA [G59C G66C] | < 1e-05
AUAAAAGCGCCAGAACUACAGAAAUGUAGUUGACGAGGAGGAGGUUUAUCGAAUUUUCGGCGGCCGCCUCCAAA [A64C U65C] | < 1e-05
AUAAACGCGCCAGAACUACAGAAAUGUAGUCGACGAGGAGCGGGGUUAUCGAAUUUUCCGCGGAUUCCUCCAAA [A6C U31C G41C A42G U45G G59C G66U] | < 1e-05
AUAAAAGCGCCAGAACUACAGAAAUGUAGUUGACGAGGAGGAGGUUUAUCGAAUUUUCGUCGGAUGCCUCAAAA [G60U C71A] | < 1e-05

— the supplement of paper PMC7125110
